Results on five molecules are retold here after patent US20180185504A1 (Regeneron, published 2018).

Substitutions are numbered along the chain they refer to. In names and notes the source's numbering stands.

The target of test [1] is T1, mfPRLR.mmh (soluble monomeric macaca fascicularis PRLR) (macaca fascicularis).
T1 construct: soluble monomeric PRLR protein; also called macaca fascicularis (mf) PRLR.mmh; monkey PRLR
T1 chain: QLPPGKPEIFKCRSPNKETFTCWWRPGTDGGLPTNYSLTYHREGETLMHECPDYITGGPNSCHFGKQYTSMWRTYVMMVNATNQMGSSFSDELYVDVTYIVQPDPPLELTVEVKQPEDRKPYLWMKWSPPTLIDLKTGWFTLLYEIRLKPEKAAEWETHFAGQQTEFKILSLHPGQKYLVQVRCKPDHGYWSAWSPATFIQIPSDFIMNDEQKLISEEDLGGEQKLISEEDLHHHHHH
The test is described as follows: SPR (Biacore), antibody capture, 37 C. As to the method: (§1) Measurements were conducted on a T200 Biacore instrument. Kinetic association (kₐ) and dissociation (kd) rate constants were determined by processing and fitting the data to a 1:1 binding model using Scrubber 2.0 curve fitting software.
(In general: In SPR one partner is held on a chip, and binding of the other changes the refractive index at the surface.)

The target of test [2] is T2, hPRLR.mFc (soluble dimeric human PRLR) (human).
T2 construct: dimeric PRLR construct
T2 chain: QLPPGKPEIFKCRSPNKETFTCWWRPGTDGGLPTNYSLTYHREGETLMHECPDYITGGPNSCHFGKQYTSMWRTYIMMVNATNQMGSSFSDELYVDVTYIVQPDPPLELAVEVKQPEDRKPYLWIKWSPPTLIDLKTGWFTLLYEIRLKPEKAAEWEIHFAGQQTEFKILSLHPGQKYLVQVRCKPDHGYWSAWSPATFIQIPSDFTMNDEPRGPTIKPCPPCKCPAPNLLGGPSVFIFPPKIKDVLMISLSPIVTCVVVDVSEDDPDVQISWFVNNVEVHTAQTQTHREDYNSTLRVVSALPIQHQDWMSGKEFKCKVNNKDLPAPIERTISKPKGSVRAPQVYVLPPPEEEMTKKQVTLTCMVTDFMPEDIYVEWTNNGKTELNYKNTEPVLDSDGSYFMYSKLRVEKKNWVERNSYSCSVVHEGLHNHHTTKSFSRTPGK
The test is described as follows: SPR (Biacore), antibody capture, 37 C. The method, then:
as §1

Test [3] deals with T3, hPRLR.mmh (soluble monomeric human PRLR) (human).
T3 construct: soluble monomeric PRLR protein
T3 chain: T1 chain with V76I, T110A, M125I, T158I, I207T
The test is described as follows: SPR (Biacore), antibody capture, 37 C. As to the method:
as §1

The target in test [4] is T4, human PRLR on cells (endogenous on T47D, T47D#11, MCF7); introduced in HEK293/hPRLR/STAT5-Luc, 293/hPRLR, … (human, UniProt P16471 25-622).
T4 construct: no tag is stated for these lines; also called prolactin receptor
T4 sequence: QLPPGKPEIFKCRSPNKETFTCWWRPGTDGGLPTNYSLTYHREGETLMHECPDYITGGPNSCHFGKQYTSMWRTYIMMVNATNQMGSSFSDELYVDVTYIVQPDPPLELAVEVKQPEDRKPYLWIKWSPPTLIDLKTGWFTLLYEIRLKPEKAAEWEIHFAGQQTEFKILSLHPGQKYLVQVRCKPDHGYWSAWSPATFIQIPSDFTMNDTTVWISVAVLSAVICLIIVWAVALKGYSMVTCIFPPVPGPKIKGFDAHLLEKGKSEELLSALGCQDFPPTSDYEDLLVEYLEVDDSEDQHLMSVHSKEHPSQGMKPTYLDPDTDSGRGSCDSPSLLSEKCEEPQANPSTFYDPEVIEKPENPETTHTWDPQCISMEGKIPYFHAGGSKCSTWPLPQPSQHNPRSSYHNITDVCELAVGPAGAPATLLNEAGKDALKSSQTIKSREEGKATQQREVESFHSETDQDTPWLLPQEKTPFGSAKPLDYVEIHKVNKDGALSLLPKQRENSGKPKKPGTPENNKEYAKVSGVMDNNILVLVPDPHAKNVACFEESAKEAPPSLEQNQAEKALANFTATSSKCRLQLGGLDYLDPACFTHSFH
Put plainly: FACS on T47D cells.

Test [5] addresses T4, human PRLR on cells (endogenous on …). The test is described as follows: cell-based or functional assay.
The target is the same in test [6]. The test is described as follows: cell-based or functional assay. The source holds these as a separate data set.
For test [7] the target is unchanged. Put plainly: imaging of alexa488 intensity on T47D cells. As to the method:
Briefly, 20,000 T47D cells were seeded in collagen coated 96 well plates. […] Cells were then incubated with alexa488 conjugated anti-hFc Fab secondary antibodies for 30 minutes on ice followed by two additional PBS washes. Antibodies were allowed to internalize for 1 h at 37° C. in internalization buffer (PBS+2% FBS) or remained at 4° C. Cells were fixed in 4% formaldehyde, nuclei were stained with DRAQ5 (Cell signaling), and images were acquired on the ImageXpress micro XL (Molecular Devices). Whole cell alexa488 intensity at 37° C. (Binding) and the alexa488 intensity in the intracellular vesicles at 37° C. (Internalization) were determined via Columbus image analysis software (PerkinElmer).

B1: H1H6793P (antibody, human IgG1, V domains shown)
VH: EVQLVESGGGLVQPGGSLRLSCAASGFSFSIYAMSWFRQAPGKGLEWVSAINGRGDGTHYADSVKGRFTISRDNSKTTLYLQMSSLRAEDTAVYYCAKPVMSTNGFDIWGQGTMVTVSS
VL: DIQMTQSPSTLSASVGDRVTITCRASQSISSWLAWYQLKPGKAPKLLIYKASNLESGVPSRFSGSGSGTEFTLTISSLQPDDFATYYCQQYNIYWTFGQGTKVEIK
notes: human IgG1 Fc (H1H)
B1: in test [1], binding was characterised by a dissociation constant (Kd) of 4.59 nM; the “T 1/2” value was 11 min; the koff – broadly, the first-order rate constant of dissociation – was 0.00107 s⁻¹; the on-rate constant (kon) (usually the second-order rate constant of association) came out at 233000 M⁻¹ s⁻¹. In test [2], the Kd (commonly a measure of binding affinity in units of concentration) is 0.347 nM, the “T 1/2” value came to 81 min, the koff is 0.000142 s⁻¹ and the kon was 410000 M⁻¹ s⁻¹. Further, in test [3], the dissociation constant Kd was determined as 3.02 nM, the “T 1/2” value was determined as 11 min, the dissociation rate constant (koff) was 0.00102 s⁻¹ and the kon came to 339000 M⁻¹ s⁻¹. For the same molecule, the “FACS Cell Binding (Fold Above Background)” value in test [4] stood at 43 fold. Further, the “% Internalization relative to Control I (T47D cells, imaging)” value (shortened to “% Internalization relative to Control I”) in test [5] came out at 180%. Moreover, the “Percent Blocking at 100 nM Antibody (STAT5-Luc reporter)” value (shortened to “Percent Blocking at 100 nM Antibody”) in test [6] was found to be 65%. In addition, in test [7], the “% Total Binding relative to Control I” value worked out at 178%.

B2: H1H6785P (antibody, human IgG1, V domains shown)
VH: EVQLVESGGGLVQPGGSLRLSCAASGFTFSSYEMNWVRQAPGKGLEWISYISSRGGTIYYADSIKGRFTIYRDNARNSLYLQMNSLRAEDTAIYYCARLSGVDIFDIWGQGTMVTVSS
VL: DIQMTQSPSSLSASVGDRVTITCRASQGISNYLAWYQQKPGKVPKLLIYFASTLQSGVPSRFSGGGSGTDFTLTISSLQPEDVATYYCQRYNSAPLTFGGGTKVEIK
notes: human IgG1 Fc (H1H)
As to B2, in test [1], the Kd is 1.52 nM, the “T 1/2” value turned out to be 26 min, the koff came to 0.00045 s⁻¹ and the kon amounted to 297000 M⁻¹ s⁻¹. Besides, in test [2], the Kd turned out to be 0.256 nM, the “T 1/2” value is 99 min, the koff stood at 0.000117 s⁻¹ and the association rate constant (kon) was 456000 M⁻¹ s⁻¹. For the same molecule, in test [3], the Kd turned out to be 1.14 nM, the “T 1/2” value amounted to 24 min, the off-rate (koff) came out at 0.000484 s⁻¹ and the association rate constant (kon) amounted to 426000 M⁻¹ s⁻¹. Further, the “FACS Cell Binding (Fold Above Background)” value in test [4] is 40 fold. In addition, the “% Internalization relative to Control I” value in test [5] amounted to 169%. Moreover, in test [6], the “IC50 of Blocking 5 nM PRL [M] (STAT5-Luc reporter, HEK293/hPRLR/STAT5-Luc cells)” value came to 3.45e-10 M and the “Percent Blocking at 100 nM Antibody” value is 100%. Besides, in test [7], the “% Total Binding relative to Control I” value was 168%.

B3: H1H6782P (antibody, human IgG1, V domains shown)
VH: EVQLVESGGGLVQPGRSLRLSCAASGFTFDDYAMHWVRQAPGKGLEWVSGIIWNSGHIGYGDSVKGRFTISRDNAKKSLYLQMNSLRAEDTALYYCARDSGRYQSYFDYWGQGTLVTVSS
VL: DIQMTQSPSTLSASVGDRVTITCRASHIISSWLAWYQQKPGKAPKVLIFKASSLESGVPSRFSGSGSGTEFTLTISSLQPDDFATYYCQQYNTYSRTFGQGTKVEIK
notes: human IgG1 Fc (H1H)
In the case of B3, in test [1], the Kd was determined as 1.99 nM, the “T 1/2” value was found to be 15 min, the koff came to 0.000767 s⁻¹ and the kon amounted to 385000 M⁻¹ s⁻¹. Further, in test [2], binding was characterised by a dissociation constant (Kd) of 0.217 nM, the “T 1/2” value was 89 min, the koff came to 0.00013 s⁻¹ and the kon amounted to 598000 M⁻¹ s⁻¹. In addition, in test [3], the affinity, expressed as Kd, was 1.28 nM; the “T 1/2” value came out at 16 min; the dissociation rate constant (koff) was found to be 0.000716 s⁻¹; the kon was 557000 M⁻¹ s⁻¹. Moreover, the “FACS Cell Binding (Fold Above Background)” value in test [4] is 43 fold. In addition, the “% Internalization relative to Control I” value in test [5] was 179%. The “Percent Blocking at 100 nM Antibody” value in test [6] was found to be 0%. Moreover, the “% Total Binding relative to Control I” value in test [7] was 210%.

B4: H1H6976N (antibody, human IgG1, V domains shown)
VH: EVQLLESGGGFVQPGGSLRLSCAASGFTFSSYAMSWVRQAPGKGLEWVSIISSNGRYTYYADSVKGRFTISRDNSKNTLYLQMNSLRAEDTAVYYCATVTGDWFDPWGQGTLVTVSS
VL: DIQLTQSPSFLSASVGDRVTITCWASQDIDISLAWYQQKPGKAPKLLIYAASTLQSGVPSKFSGSGSGTDFTLTISSLQPEDFSTYYCQQLNSYPITFGQGTRLDIK
notes: also called H2M6976N
For the molecule B4, in test [1], binding was characterised by a dissociation constant (Kd) of 5.24 nM, the “T 1/2” value came to 3.7 min, the off-rate (koff) turned out to be 0.00316 s⁻¹ and the kon was determined as 603000 M⁻¹ s⁻¹. Further, in test [2], the Kd stood at 0.102 nM, the “T 1/2” value was determined as 82.6 min, the koff came out at 0.00014 s⁻¹ and the kon was found to be 1.37e+06 M⁻¹ s⁻¹. In test [3], the Kd was 4.04 nM, the “T 1/2” value was determined as 3.7 min, the koff was determined as 0.00314 s⁻¹ and the kon was determined as 777000 M⁻¹ s⁻¹. In addition, the “FACS Cell Binding (Fold Above Background)” value in test [4] was 37 fold. In addition, in test [5], the “% Internalization relative to Control I” value came to 170%. In addition, the “Percent Blocking at 100 nM Antibody” value in test [6] was determined as 23%. In addition, in test [7], the “% Total Binding relative to Control I” value amounted to 180%.

B5: H1H6958N2 (antibody, human IgG1, V domains shown)
VH: QVQLVESGGGVVQPGRSLRLSCGASGFTFRNYGMQWVRQGPGKGLEWVTLISFDGNDKYYADSVKGRFTISRDNSKNTLFLQMNSLRTEDTAVYYCARGGDFDYWGQGTLVTVSS
VL: DIQMTQSPSSLSASVGDRVTITCRASQDIRKDLGWYQQKPGKAPKRLIYAASSLHSGVPSRFSGSGSGTEFTLTISSLQPEDFATYYCLQHNSYPMYTFGQGTKLEIK
notes: also called H2M6958N2
As for B5, in test [1], the affinity, expressed as Kd, was 4.08 nM; the “T 1/2” value was 8.6 min; the off-rate (koff) turned out to be 0.00134 s⁻¹; the kon is 328000 M⁻¹ s⁻¹. In addition, in test [2], the affinity, expressed as Kd, was 0.167 nM; the “T 1/2” value was found to be 83.3 min; the koff turned out to be 0.000139 s⁻¹; the kon was determined as 829000 M⁻¹ s⁻¹. In addition, in test [3], the affinity, expressed as Kd, was 3.16 nM; the “T 1/2” value was 8.8 min; the off-rate constant (koff) stood at 0.00131 s⁻¹; the kon turned out to be 413000 M⁻¹ s⁻¹. The “FACS Cell Binding (Fold Above Background)” value in test [4] is 37 fold. For the same molecule, the “% Internalization relative to Control I” value in test [5] is 169%. Besides, in test [6], the “IC50 of Blocking 5 nM PRL [M] (STAT5-Luc reporter, HEK293/hPRLR/STAT5-Luc cells)” value turned out to be 1.98e-10 M and the “Percent Blocking at 100 nM Antibody” value is 100%. Moreover, the “% Total Binding relative to Control I” value in test [7] is 162%.
